Test results: patent US20020127684

Legend:
GST-ATF2 = target: T1, GST-ATF2
T1 sequence (P15336 whole entry, species assumed, looked up): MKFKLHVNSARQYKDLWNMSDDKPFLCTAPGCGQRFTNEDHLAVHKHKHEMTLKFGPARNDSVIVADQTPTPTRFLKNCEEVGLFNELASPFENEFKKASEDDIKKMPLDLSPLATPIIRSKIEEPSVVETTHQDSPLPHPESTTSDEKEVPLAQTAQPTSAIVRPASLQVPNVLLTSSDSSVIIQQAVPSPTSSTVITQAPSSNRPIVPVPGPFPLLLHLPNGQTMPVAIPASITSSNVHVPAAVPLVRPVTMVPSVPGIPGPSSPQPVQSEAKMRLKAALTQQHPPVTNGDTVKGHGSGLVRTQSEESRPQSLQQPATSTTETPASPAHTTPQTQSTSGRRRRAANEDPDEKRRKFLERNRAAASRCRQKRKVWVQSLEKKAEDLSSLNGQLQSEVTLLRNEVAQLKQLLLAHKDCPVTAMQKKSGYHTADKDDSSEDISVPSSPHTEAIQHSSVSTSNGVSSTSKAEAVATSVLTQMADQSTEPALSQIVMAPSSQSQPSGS

Measured: in vitro kinase assay with gamma-32P ATP: phosphorylation of heterologous substrate

Chain of myelin basic protein (P02687 whole entry): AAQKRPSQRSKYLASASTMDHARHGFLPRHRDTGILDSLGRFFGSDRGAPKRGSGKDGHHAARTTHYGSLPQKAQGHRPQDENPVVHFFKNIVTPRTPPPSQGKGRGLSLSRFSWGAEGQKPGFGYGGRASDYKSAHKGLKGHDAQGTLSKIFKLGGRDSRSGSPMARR

B1: GST-CARK fusion protein (full length human CARK) (protein)
chain: MGNYKSRPTQTCTDEWKKKVSESYVITIERLEDDLQIKEKELTELRNIFGSDEAFSKVNLNYRTENGLSLLHLCCICGGKKSHIRTLMLKGLRPSRLTRNGFTALHLAVYKDNAELITSLLHSGADIQQVGYGGLTALHIATIAGHLEAADVLLQHGANVNIQDAVFFTPLHIAAYYGHEQVTRLLLKFGADVNVSGEVGDRPLHLASAKGFLNIAKLLMEEGSKADVNAQDNEDHVPLHFCSRFGHHDIVKYLLQSDLEVQPHVVNIYGDTPLHLACYNGKFEVAKEIIQISGTESLTKENIFSETAFHSACTYGKSIDLVKFLLDQNVININHQGRDGHTGLHSACYHGHIRLVQFLLDNGADMNLVACDPSRSSGEKDEQTCLMWAYEKGHDAIVTLLKHYKRPQDELPCNEYSQPGGDGSYVSVPSPLGKIKSMTKEKADILLLRAGLPSHFHLQLSEIEFHEIIGSGSFGKVYKGRCRNKIVAIKRYRANTYCSKSDVDMFCREVSILCQLNHPCVIQFVGACLNDPSQFAIVTQYISGGSLFSLLHEQKRILDLQSKLIIAVDVAKGMEYLHNLTQPIIHRDLNSHNILLYEDGHAVVADFGESRFLQSLDEDNMTKQPGNLRWMAPEVFTQCTRYTIKADVFSYALCLWEILTGEIPFAHLKPAAAAADMAYHHIRPPIGYSIPKPISSLLIRGWNACPEGRPEFSEVVMKLEECLCNIELMSPASSNSSGSLSPSSSSDCLVNRGGPGRSHVAALRSRFELEYALNARSYAALSQSAGQYSSQGLSLEEMKRSLQYTPIDKYGYVSDPMSSMHFHSCRNSSSFEDSS
phosphorylated: Phas-1 (4E-BP-1) | H1 histone | myelin basic protein | GST-ATF2

B2: GST-CARK-KD fusion protein (CARK kinase domain, amino acid residues 424 to 835 of SEQ ID NO:2) (protein)
chain: SYVSVPSPLGKIKSMTKEKADILLLRAGLPSHFHLQLSEIEFHEIIGSGSFGKVYKGRCRNKIVAIKRYRANTYCSKSDVDMFCREVSILCQLNHPCVIQFVGACLNDPSQFAIVTQYISGGSLFSLLHEQKRILDLQSKLIIAVDVAKGMEYLHNLTQPIIHRDLNSHNILLYEDGHAVVADFGESRFLQSLDEDNMTKQPGNLRWMAPEVFTQCTRYTIKADVFSYALCLWEILTGEIPFAHLKPAAAAADMAYHHIRPPIGYSIPKPISSLLIRGWNACPEGRPEFSEVVMKLEECLCNIELMSPASSNSSGSLSPSSSSDCLVNRGGPGRSHVAALRSRFELEYALNARSYAALSQSAGQYSSQGLSLEEMKRSLQYTPIDKYGYVSDPMSSMHFHSCRNSSSFEDSS
phosphorylated: Phas-1 (4E-BP-1) | H1 histone | myelin basic protein | GST-ATF2
